Data published in the DeepSol protein solubility set.

Test: soluble on expression in E. coli; label from the status in PepcDB or PDB records

Sequence | soluble on expression in E. coli
MGSDKIHHHHHHMLELGQTPNAAPDAAPADLIKDTTDATFMADVVDASQTTPVIVDFWAPWCGPCKTLGPQLEAAVTAAKGKVRMVKVNVDENQQIAAQLRVQSIPMVYAFVDGQPIDGFQGAVPESQIKDFVTKLAAMSKEDGGLAEALEAAEEMLSMGEHDDAAQTFAAILGEEPENAAAMGGLARAHLAMGQVDEAEQLLSTAPDAIFNAPELEAVRAQIELARQAESAGPLAELQAAVDANPDDHAARFELAQALHANGDVEQAVDQLLELFRRDREWEDAKAKTQLFTIFDALPPQDPIALTGRRRLSSMIFA | not soluble
MSLDLSASRSDGGDPLRPASPRLRSPVSDGGDPLRPASPRLRSPVSDGGDPLRPASPRLRSPLGASRPVVGLTAYLEQVRTGVWDIPAGYLPADYFEGITMAGGVAVLLPPQPVDPESVGCVLDSLHALVITGGYDLDPAAYGQEPHPATDHPRPGRDAWEFALLRGALQRGMPVLGICRGTQVLNVALGGTLHQHLPDILGHSGHRAGNGVFTRLPVHTASGTRLAELIGESADVPCYHHQAIDQVGEGLVVSAVDVDGVIEALELPGDTFVLAVQWHPEKSLDDLRLFKALVDAASGYAGRQSQAEPREGGSHHHHHH | soluble
MSVDVKSDFSENESSSTPSPTTVPADVTWPHYPMMPFMQPHPLREKMLQPTFDPQIYGRWSQMGDTGFYGHPDLYPFGLPQLAANGQIPAVEAVDVKPPLSNGSSSSDSGMYPSPSDMMTPFPSTSSGAASSSELSAAAAAAANYQMRAATCYQQSVWPFMDYQQFQGFSWKMPLGNNHGKDRRSSSDGKTLPTGPGTNNVRVRTADKYRMVYSDYQRLELEKEFHTSPFITSDRKSQLSTMLSLTERQIKIWFQNRRAKDRRDKQKIRL | not soluble
MLQSGEWAYTEKLKEHFESPKNVLQGNDTSAFDGVGMEGNLQCGDQMMVAIKVDKESEKITDCQWKTYGCASAIASTSILSEMVKGMTLDQAFNISPKEVAKELGGLPENKIHCSVLGDKALRAAINDYFIRNGMSDRVQKVQARTVCQCMNVTDHDIEEAVLEGARTFYELQEHTKISTVCGQCREDAENELQKYIHLHFGS | soluble
MKKETLYVAFSTQKGGVGKTTFTVLVASYLYYLKGYNVAVVDCDYPQHSISAMRKRDAEQVNGDDYYKQLAFSQFKTLGKKAYPVLCSSPDEAIKTADEFLASAGSDYDVVFFDLPGTVNSEGVINSLSGVDYIFTPIAADRVVLESSLSFAVAINKLLVKNEACRLKGLHLFWNMVDGREKTDLYTLYEQTIGELELPLMKVFIPDTKRFKKELDAQRKTVFRSTLFPADKRLVKGSNIEELITEIAYLIKL | soluble
MGLFDFFKKKSSSEKTPIEDGDKTVVKSEDTDDSAPGWEAIDAEFDRLYPDQPNPLHYGTIVKYMFGGPDPLDGISVYDAGDFWHFVSYGLSELYTKESTDSEYSGYGIELTFKLKKSTNDEEEIKNGCGLLQYVARYIFKTGKVVLPEEYIYMKQTVGIDIQQKSKLTGFLTVSDNLAKPLDTPHGKVEFVTLIGATDAELRSVYESETSKLEVRKLLQELGNQITDYNRQSLVLEHHHHHH | not soluble
MGSDKIHHHHHHMKAQSALSVKEANFKAMTTFIYTQGSATKQMFEHELGLSLPTITQNLRAMEADGLIVKGEMQKSTGGRKAQIYEFAAHSSVAIGVRIQTTRITAIAIDLNGKSVATRQRTLPYRNNDAYYQRMNDIINGFAQELAKQGSTVLGVAFCMQGIVSADGQSITFGKIMNNTGLKLSELSHGLNYPSLMIHDSDASAMAELWFDHNLKDAVCIYLERRPGGAVIVDGSLYQGPNQCNGSIEHMTLIPGGNTCYCGQQGCMDTYCSPETLMEDGESLPGFFSVLEQGEQEHRKRFSQWLDYVALAVTNIRSVLAGDVIISGEAAQYLDDDDMAGLRERVVEHTPFGTTDFTLRKGMALDHQDIIGAALRFVEPYVRELCDM | not soluble
MGSDKIHHHHHHMKRIVCPKDYYNEQGLLLSAKGTKITLSQFLRLQRKYDFLSETEANERTLASYEKIKQKICRKDERYKRADDQLLDQASALLVNIVFESKRKPWYMYLTALGNHINWLYTHSIDVALLSLMMAIESGVSQRSLWDLGVGGILHDVGKLLIPKKIIQKRTELSDIEKDILRQHCELGVECTTDCAFPILSQDIIAQHHERLDGSGYPNQLQEGQINEYVKIVMIADAFDTITAGRPYRKTVEVEEALAYLEDQEGAFSRMYLETLKNILVRP | not soluble
MIYEGKAITVTALESGIVELKFDLKGESVNKFNRLTLNELRQAVDAIKADASVKGVIVSSGKDVFIVGADITEFVENFKLPDAELIAGNLEANKIFSDFEDLNVPTVAAINGIALGGGLEMCLAADFRVMADSAKIGLPEVKLGIYPGFGGTVRLPRLIGVDNAVEWIASGKENRAEDALKVSAVDAVVTADKLGAAALDLIKRAISGELDYKAKRQPKLEKLKLNAIEQMMAFETAKGFVAGQAGPNYPAPVEAIKTIQKAANFGRDKALEVEAAGFAKLAKTSASNCLIGLFLNDQELKKKAKVYDKIAKDVKQAAVLGAGIMGGGIAYQSASKGTPILMKDINEHGIEQGLAEAAKLLVGRVDKGRMTPAKMAEVLNGIRPTLSYGDFGNVDLVVEAVVENPKVKQAVLAEVENHVREDAILASNTSTISISLLAKALKRPENFVGMHFFNPVHMMPLVEVIRGEKSSDLAVATTVAYAKKMGKNPIVVNDCPGFLVNRVLFPYFGGFAKLVSAGVDFVRIDKVMEKFGWPMGPAYLMDVVGIDTGHHGRDVMAEGFPDRMKDDRRSAIDALYEAKRLGQKNGKGFYAYEADKKGKQKKLVDSSVLEVLKPIVYEQRDVTDEDIINWMMIPLCLETVRCLEDGIVETAAEADMGLVYGIGFPLFRGGALRYIDSIGVAEFVALADQYAELGALYHPTAKLREMAKNGQSFFG | soluble
MRNKDLEPHSFELWLNAAKTNLDKYEMALIITATLGLRRGEVMGLRNESIKISHDQINDADVAQISIDMQRNTNELNGGPLKTKSSYRTIWAFGKTVDHLKYAMITADNLRQRNNIQAEKHWLWLNNDGNPLHPTHLNRLMRRVSNRSGVEVYPHLLRHYFATQAIAANKPQIDVMHYLGHKNLQMTADYTRSTKAASLNVFNSIDKFLLEHHHHHH | not soluble
MSLAAELFATRPDTHARERPEAVALIDRDRPVTHAALRAGVLDLAGGLAALGVCRGERVALWLPNCAHWVTMFLACARLGALTLAVNTRFRAQELGDILGRGQADWLVYWPGFKGIDFAGILAAVPPAARARLRGAIVVDGSGAQATPGPAGLAAHALAALHGPAPLPAPNAGVLCFTTSGTTSLPKFVLHDQDTLLRHGDAIARSYGYDDDSRILASAPFCGAFGFATLVGALARGVPVICEPAFDAARSVAAVRRHRVTHTYANNEALVQMFRLGERADFATARLFGFASFAPALGDLLPLARAQGVPLTGLYGSSELIALVAAQPREPADGDVSVRYEPGGALIHPEARVRARDPQDGRILADGESGEIEILAPSLMRGYLDNPQASAGALTDDGYFRTGDLGYTLGTRQFVFQTRMGDSLRLSGFLVNPAEIEQAVEALPGIRACQVVGATRDGKTVPYAFVLLDAGASPDPPGWMAACRQGMAGFKVPAGFQVLEAFPVVESANSAKIQKHKLREQAEALLAAAEGHHHHHH | not soluble
MPAAQEVQISIAEVIEVRGYGLNAPELLSVAVSAADRLPPCPKGTVFDTENVFLNSKGELVIKTVATSRVDRSFVPPEWAKGEEDAQAAAVYCLGAVLRAAGAEEAADVDLFSLVNILTVAMTGTRPTAHRMGQMARNQLRGRDPASMLMCIYEELMGDEDTNQKRPNRKINFLNEKSMF | not soluble
NNMFSRQAPHFAVTDYDGTLQLLEDGLVLQHDGNHPLALYDYLNDKELRTNLIKTQAARADSMTCRIEAVIQSFNHRMNTNRLVADK | not soluble
MSLSKPLKAIIIGAGISGMVASVRLREMGIEHTIFEKNNEFGGTWWENRYPGCGVDTPNLTYTFSFRPNDWSAFFPLRDEIENYLLETARESGLYDRVRFGTKVERAEWLADRNQWQVTVRAEDGSEEVHHADIVMSAVGILNMPVVPDIKGLSGFAGRVVHTSDWPQDIDLKGKRVAVVGNGASAMQVVPAIADQVAELTIFARSKQWAAPFPQFRKPVPNGVRYLMQVVPLYRAWVEQRLSWTFNDRVHGTLFRDPDWKEPARAVNAINDGHREFFTRYVREELGERQDLLPLVLPDYPPFAKRMLLDNGWYRTLRKPHVKLVPQRLAEVRGHTLVAQDGQEIEADVLILATGFQAANVLGSYDVIGRDGRDLHEFWEGDNAAAYLGTLVPGFPNFFILLGPNVGSGHGGSMIRNIENQAHYATRVIEALVKSGADAVEVREDVYGDYKARIDAAHEKLVWTHPGATNWYRNSRGRVVAITPWRNDAFWRMTREARPEDLSFSGAEGHHHHHH | soluble
MNGVEGNNELSLANTTTPSHASEDLDLKQDQGLQEETDTVREMEAAGEAGADGGASPDSEHCGPELCFRVAENSCAAAARGLEDAPSPSKGGDAPSAPVAADDSSKNGCQLEGPHSPAKPKALEACGAVGLGSQQMPGPKKTKEMTTTKCAISVATGKEGEAGAAMQEKKGLQKEKKVAGGGKEETRPRAPKINCMDSLEAIDQELSNVNAQADRAFLQLERKFGRMRRLHMQRRSFIIQNIPGFWVTAFRNHPQLSPMISGQDEDMMRYMINLEVEELKQPRVGCKFKFIFQSNPYFRNEGLVKEYERRSSGRVVSLSTPIRWHRGQEPQAHIHRNREGNTIPSFFNWFSDHSLLEFDRIAEIIKGELWSNPLQYYLMGDGPRRGVRVPPRQPVESPRSFRFQSG | soluble
GAMVSGQIMHAVGEEGGHVKYVCKIENYDQSTQVTWYFGVRQLENSEKYEITYEDGVAILYVKDITKLDDGTYRCKVVNDYGEDSSYAELFVKGVRE | soluble
SFTSMLSVNQAVSAERKLIDHLIIYIEHEAQRLEDIKRFFSRVTSLHDGIYNEPSDPIANPIAAFKLVKRLKSEWLNVVHSTEAEENIKVLREDYRRMESSLPKLEDLRGAAHGLMRLQDVYNLHVESLVRGHFQQISDPVDFYKLSVSDMLSGDDCFLVGKVAYDLEDYYHSVLWFEEAVRLFRGTEWSPENEGTLEDALDHLAFSHFKVCH | not soluble
MTRHSAVRQAIIAALKKTDDGSTTFFDGRPVVVEEDELPAVAVYLSDAQYTGPEVDGDIWSAVLHVEVFLKATAPDSALDEQMENRVYPALGSVAGLGDIIRTMSAQGYNYQRDDEMAMWGSADLSYDITYSM | not soluble
GAADMPFRWSFMADGKSLIAAQPDDARVIADTEALAGWYGGMTSLAPKQIKLFADGAIYSQLMQVRDPFLDGHKGEWMMDLDQFQRAFRVYWDAGYQLHVHVNGDAGLDRVLDTLETNLRRTPRDDHRTTIVHFAVSGADQVLRIRDLGAIVSANPYYVAALADNYGEVGLGPDRADNMVRLGDVEAAGISWSLHSDMPMAPCDPLFLMWCAVNRVTSSGRVAGPAQRVSAETALRGVTINAAYSLKLEHEIGSIEPGKRANLTILGDNPLTVDPEKIRDIAVIGTVMEGRDFP | not soluble
MGVLITGCGSRGDTEPLVALAARLRELGADARMCLPPDYVERCAEVGVPMVPVGRAVRAGAREPGELPPGAAEVVTEVVAEWFDKVPAAIEGCDAVVTTGLLPAAVAVRSMAEKLGIPYRYTVLSPDHLPSEQSQAERDMYNQGADRLFGDAVNSHRASIGLPPVEHLYDYGYTDQPWLAADPVLSPLRPTDLGTVQTGAWILPDQRPLSAELEGFLRAGSPPVYVGFGSGPAPAEAARVAIEAVRAQGRRVVLSSGWAGLGRIDEGDDCLVVGEVNHQVLFGRVAAVVHHGGAGTTTAVTRAGAPQVVVPQKADQPYYAGRVADLGVGVAHDGPTPTVESLSAALATALTPGIRARAAAVAGTIRTDGTTVAAKLLLEAISRQRSSVPAAKLAAALEHHHHHH | soluble
MEPTEKSMLLETTSTTKMETKYEDMLPVMAEKMDVEEFVSELCKGFSLLADPERHLITAESLRRNSGILGIEGMSKEDAQGMVREGDLDGDGALNQTEFCVLMVRLSPEMMEDAETWLEKALTQELCNHNLSSMP | soluble
